{"source": "paper PMC12671168", "about": "“The signal peptide of staphylococcal protein A alters the multimeric states of PepV” (Microbiology Spectrum, 2025)", "key": {"[1]": {"target": "PepV (Staphylococcus aureus), recombinant His-PepV (Staphylococcus aureus)", "assay": "native gel or EMSA; purified proteins, alone or mixed with peptide or precursor (0.5 µM PepV, 10-fold molar excess or rising concentrations of SpA SP); NativePAGE 4%-16% gel, 5 mA, 4°C, silver stain"}, "[2]": {"target": "PepV (Staphylococcus aureus), recombinant His-PepV (Staphylococcus aureus)", "assay": "SEC; purified PepV alone or incubated with a 10-fold molar excess of peptide; Agilent SEC-3 or TSKgel Super2000 on HPLC; 0.5 M HEPES pH 7.6, 150 mM NaCl; 0.35 mL/min; absorbance at 280 nm"}, "PepVSpn": {"target": "T1, PepVSpn (Streptococcus pneumoniae, UniProt A0A0H2UP69)", "T1 construct": "gene pepV; purified ortholog, probably His-tagged from E. coli BL21(DE3); dimer only", "T1 sequence (A0A0H2UP69 1-466)": "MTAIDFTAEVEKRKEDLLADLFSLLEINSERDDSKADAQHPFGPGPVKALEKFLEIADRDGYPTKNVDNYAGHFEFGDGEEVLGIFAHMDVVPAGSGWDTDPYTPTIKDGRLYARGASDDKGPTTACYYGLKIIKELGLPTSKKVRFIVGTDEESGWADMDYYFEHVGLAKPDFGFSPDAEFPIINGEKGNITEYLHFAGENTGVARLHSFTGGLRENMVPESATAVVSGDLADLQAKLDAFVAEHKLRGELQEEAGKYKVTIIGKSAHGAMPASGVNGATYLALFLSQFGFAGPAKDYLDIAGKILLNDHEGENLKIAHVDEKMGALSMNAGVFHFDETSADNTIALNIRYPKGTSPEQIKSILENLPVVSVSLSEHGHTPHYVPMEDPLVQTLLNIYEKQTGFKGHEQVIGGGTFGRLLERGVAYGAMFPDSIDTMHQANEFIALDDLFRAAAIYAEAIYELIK", "assay": "Cd-ninhydrin colorimetric dipeptidase assay, […] nm", "type": "biochemical", "details": "25 mM Tris pH 7.5, 2 mM MnCl2, 5 mM TCEP, 37 °C"}, "PepVEpi": {"target": "T2, PepVEpi (Staphylococcus epidermidis, UniProt Q5HNF9)", "T2 construct": "gene SERP1310; purified ortholog, probably His-tagged from E. coli BL21(DE3); multimers beyond dimer", "T2 sequence (Q5HNF9 1-469)": "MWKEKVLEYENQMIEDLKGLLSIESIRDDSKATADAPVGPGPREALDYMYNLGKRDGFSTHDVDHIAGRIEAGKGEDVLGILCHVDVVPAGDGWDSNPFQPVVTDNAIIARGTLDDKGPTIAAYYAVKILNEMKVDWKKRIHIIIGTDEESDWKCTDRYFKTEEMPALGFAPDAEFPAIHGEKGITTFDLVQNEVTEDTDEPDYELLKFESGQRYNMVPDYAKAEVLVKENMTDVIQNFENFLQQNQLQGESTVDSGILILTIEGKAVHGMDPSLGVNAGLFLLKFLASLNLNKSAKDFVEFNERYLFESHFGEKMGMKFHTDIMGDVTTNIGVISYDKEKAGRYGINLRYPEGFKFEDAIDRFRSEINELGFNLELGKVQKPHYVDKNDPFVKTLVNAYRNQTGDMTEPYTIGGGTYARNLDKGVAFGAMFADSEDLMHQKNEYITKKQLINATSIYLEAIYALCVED", "assay": "Cd-ninhydrin colorimetric dipeptidase assay, […] nm", "type": "biochemical", "details": "25 mM Tris pH 7.5, 2 mM MnCl2, 5 mM TCEP, 37 °C"}, "[3]": {"target": "T3, PepV (staphylococcal PepV) (Staphylococcus aureus, UniProt Q5HF23)", "T3 construct": "gene SACOL1801; His-tagged (pSY273, pET16b-H6-pepV), E. coli BL21(DE3), Ni-NTA; dimer, tetramer and higher oligomers", "T3 sequence (Q5HF23 1-469)": "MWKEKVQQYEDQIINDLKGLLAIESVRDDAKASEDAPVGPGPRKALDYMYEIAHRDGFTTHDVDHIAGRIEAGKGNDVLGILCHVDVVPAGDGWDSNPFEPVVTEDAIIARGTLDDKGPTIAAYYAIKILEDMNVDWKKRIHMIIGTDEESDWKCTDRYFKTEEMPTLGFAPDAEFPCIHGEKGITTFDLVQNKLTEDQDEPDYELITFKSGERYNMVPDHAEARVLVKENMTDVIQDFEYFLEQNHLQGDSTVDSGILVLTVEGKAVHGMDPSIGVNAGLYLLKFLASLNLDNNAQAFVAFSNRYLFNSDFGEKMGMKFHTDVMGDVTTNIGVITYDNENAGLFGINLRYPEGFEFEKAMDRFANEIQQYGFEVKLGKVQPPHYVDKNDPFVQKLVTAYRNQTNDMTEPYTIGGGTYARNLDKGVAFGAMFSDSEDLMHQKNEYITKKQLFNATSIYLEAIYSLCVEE", "assay": "Cd-ninhydrin colorimetric dipeptidase assay, […] nm", "type": "biochemical", "details": "25 mM Tris pH 7.5, 2 mM MnCl2, 5 mM TCEP, 37 °C"}, "PepVBsub": {"target": "T4, PepVBsub (Bacillus subtilis, UniProt O34944)", "T4 construct": "gene ytjP; purified ortholog, probably His-tagged from E. coli BL21(DE3); multimers beyond dimer", "T4 sequence (O34944 1-463)": "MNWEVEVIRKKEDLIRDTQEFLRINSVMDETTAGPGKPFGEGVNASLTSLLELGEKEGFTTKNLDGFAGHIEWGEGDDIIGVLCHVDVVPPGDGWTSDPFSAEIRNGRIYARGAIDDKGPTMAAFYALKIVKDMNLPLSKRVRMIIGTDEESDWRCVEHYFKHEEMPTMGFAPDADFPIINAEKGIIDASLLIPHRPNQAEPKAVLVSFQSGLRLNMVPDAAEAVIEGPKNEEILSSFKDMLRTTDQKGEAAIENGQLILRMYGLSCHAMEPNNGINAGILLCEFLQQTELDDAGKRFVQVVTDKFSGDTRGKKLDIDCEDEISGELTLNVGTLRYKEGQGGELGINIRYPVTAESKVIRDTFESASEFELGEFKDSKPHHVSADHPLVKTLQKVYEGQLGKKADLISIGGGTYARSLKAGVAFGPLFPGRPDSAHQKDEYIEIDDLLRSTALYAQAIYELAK", "assay": "Cd-ninhydrin colorimetric dipeptidase assay, […] nm", "type": "biochemical", "details": "25 mM Tris pH 7.5, 2 mM MnCl2, 5 mM TCEP, 37 °C"}, "[4]": {"target": "the molecule itself", "assay": "native gel or EMSA; purified proteins, alone or mixed with peptide or precursor (0.5 µM PepV, 10-fold molar excess or rising concentrations of SpA SP); NativePAGE 4%-16% gel, 5 mA, 4°C, silver stain"}}, "note": "Values joined by “and” are separate entries in the source; they are usually repeats but may differ in a detail not shown here. Equal values may be shown once. Peptide text beside a SMILES is read from it.", "data": [{"molecule": "SpA SP (signal peptide of staphylococcal protein A)", "values": [{"measurement": "concentration of SpA SP at which the tetrameric and oligomeric PepV species diminish", "setting": "[1]", "result": 300, "unit": "nM"}]}, {"molecule": "PepV (Staphylococcus aureus), recombinant His-PepV (enzyme)", "values": [{"measurement": "stoichiometry N", "setting": "[2]", "result": "2 and 4"}, {"measurement": "stoichiometry N", "setting": "[1]", "result": "2 and 4"}]}, {"molecule": "C[C@H](N)C(=O)N[C@@H](C)C(=O)O", "note": "[Ala-Ala] (H-Ala-Ala-OH)", "values": [{"measurement": "Cd-ninhydrin colorimetric dipeptidase assay, 507 nm", "setting": "PepVSpn", "result": "performed a colorimetric ninhydrin dipeptidase assay using Ala-Ala as the substrate"}, {"measurement": "Cd-ninhydrin colorimetric dipeptidase assay, 507 nm", "setting": "PepVEpi", "result": "performed a colorimetric ninhydrin dipeptidase assay using Ala-Ala as the substrate"}, {"measurement": "Cd-ninhydrin colorimetric dipeptidase assay, 507 nm", "setting": "[3]", "result": "we assessed the enzymatic activity of PepV in the presence of the SpA SP"}, {"measurement": "Cd-ninhydrin colorimetric dipeptidase assay, 507 nm", "setting": "PepVBsub", "result": "performed a colorimetric ninhydrin dipeptidase assay using Ala-Ala as the substrate"}]}, {"molecule": "E. coli PepT (enzyme, Escherichia coli, UniProt P29745 1-408, looked up, PepT of Escherichia coli, found with Foldseek as a protein structurally similar to PepV; The methods speak of recombinant His-tagged proteins from E. coli BL21(DE3); the construct of PepT is not described; also called Esherichia coli PepT; source: purified) MDKLLERFLNYVSLDTQSKAGVRQVPSTEGQWKLLHLLKEQLEEMGLINVTLSEKGTLMATLPANVPGDIPAIGFISHVDTSPDCSGKNVNPQIVENYRGGDIALGIGDEVLSPVMFPVLHQLLGQTLITTDGKTLLGADDKAGIAEIMTALAVLQQKKIPHGDIRVAFTPDEEVGKGAKHFDVDAFDARWAYTVDGGGVGELEFENFNAASVNIKIVGNNVHPGTAKGVMVNALSLAARIHAEVPADESPEMTEGYEGFYHLASMKGTVERADMHYIIRDFDRKQFEARKRKMMEIAKKVGKGLHPDCYIELVIEDSYYNMREKVVEHPHILDIAQQAMRDCDIEPELKPIRGGTDGAQLSFMGLPCPNLFTGGYNYHGKHEFVTLEGMEKAVQVIVRIAELTAQRK", "values": [{"measurement": "stoichiometry N", "setting": "[4]", "result": 4}]}]}
